Experimental data taken from publication PMC4918325, “Mto2 multisite phosphorylation inactivates non-spindle microtubule nucleation complexes during mitosis” (Nature Communications, 2015).

Biological target: T1, Mto1-SZZ (protein A-tagged Mto1) (Schizosaccharomyces pombe, UniProt O94488 1-1115)
T1 construct: Mto1, Schizosaccharomyces pombe; Bait of all IgG-bead pulldowns; also called SZZ-tagged Mto1; source: S. pombe, gene tagged by PCR-based methods, in cell extract
T1 sequence (looked up): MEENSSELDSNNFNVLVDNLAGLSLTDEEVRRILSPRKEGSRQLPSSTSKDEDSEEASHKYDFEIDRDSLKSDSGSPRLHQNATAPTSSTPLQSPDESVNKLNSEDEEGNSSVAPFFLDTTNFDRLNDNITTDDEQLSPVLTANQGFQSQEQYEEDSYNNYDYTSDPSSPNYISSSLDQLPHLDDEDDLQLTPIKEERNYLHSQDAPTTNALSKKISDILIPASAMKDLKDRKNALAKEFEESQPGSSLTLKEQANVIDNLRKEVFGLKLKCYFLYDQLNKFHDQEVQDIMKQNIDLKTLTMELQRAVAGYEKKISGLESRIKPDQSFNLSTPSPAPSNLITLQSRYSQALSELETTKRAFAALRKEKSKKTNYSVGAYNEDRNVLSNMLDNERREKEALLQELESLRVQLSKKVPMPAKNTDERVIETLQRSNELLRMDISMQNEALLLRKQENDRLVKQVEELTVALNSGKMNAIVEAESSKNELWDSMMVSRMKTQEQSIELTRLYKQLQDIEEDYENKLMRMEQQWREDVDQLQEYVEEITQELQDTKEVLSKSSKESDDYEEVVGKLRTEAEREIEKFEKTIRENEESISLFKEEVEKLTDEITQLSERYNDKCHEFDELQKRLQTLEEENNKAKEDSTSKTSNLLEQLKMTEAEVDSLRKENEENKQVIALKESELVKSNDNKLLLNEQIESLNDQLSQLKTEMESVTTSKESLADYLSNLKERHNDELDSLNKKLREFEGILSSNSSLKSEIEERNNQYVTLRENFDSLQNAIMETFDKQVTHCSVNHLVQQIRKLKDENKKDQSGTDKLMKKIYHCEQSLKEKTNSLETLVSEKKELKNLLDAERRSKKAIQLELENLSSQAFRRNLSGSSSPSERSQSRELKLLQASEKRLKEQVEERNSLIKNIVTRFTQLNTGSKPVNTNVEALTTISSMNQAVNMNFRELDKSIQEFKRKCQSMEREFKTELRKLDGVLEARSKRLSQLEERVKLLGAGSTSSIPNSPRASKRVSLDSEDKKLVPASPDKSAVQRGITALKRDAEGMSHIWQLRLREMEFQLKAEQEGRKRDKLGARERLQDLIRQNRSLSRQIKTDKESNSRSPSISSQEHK
Experiment: pull-down; IgG-coupled Dynabeads pull Mto1-SZZ from extracts of interphase (asynchronous) S. pombe cells (mto2+, mto2[6A], mto2[13A], mto2[17A], mto2[24A]); 90 min at 4 °C; lysis buffer 25 mM sodium phosphate pH 7.5, 100 mM KCl, 0.5 mM EDTA, 0.2% Triton X-100 with protease and phosphatase inhibitors; western blot
Conditions: partners not purified

B1: Gtb1 (S. pombe γ-tubulin) (natural protein, UniProt P25295 1-446, looked up)
chain: MGREIITLQAGQCGNQIGSQFWQQLCLEHGIGPDGTLESFATEGVDRKDVFFYQSDDTRYIPRAILIDLEPRVVNNILSDTYGSLYNPENILITKNGGGAGNNWANGYSHAERIFEDIMDMIDREADGSDSLEGFSLLHSIAGGTGSGLGSFLLERLNDRYPKKIIQTYSVFPNSQSVSDVVVQPYNSLLALKRLTLNADSVVVLDNAALAHIAADRLHTQNPTFHQQNQLVSTVMSASTTTLRYPGYMNNDLVSIIASLIPSPRCHFLLTSYTPFTNQQVEEAKAIRKTTVLDVMRRLLLPKNQMVSVNPSKKSCFISILDIIQGEADPADVHKSLLRIRERRYASFIPWGPASIQVALSKKSPYIKTNHRVSGLMLANHTSIASLFKRTLDQYDRLRKRNAFLEQYKKEAIFEDDLNEFDSSRDVVADLINEYEACEDPNYLSL
notes: γ-tubulin Gtb1, Schizosaccharomyces pombe; Detected by anti-γ-tubulin blot (GTU-88); also called read-out of the γ-tubulin complex (γ-TuC); source: endogenous, S. pombe cell extract
fold change of γ-tubulin copurifying with Mto1-SZZ in mto2[6A] cells relative to wild-type cells: ~1.5 fold | fold change of γ-tubulin copurifying with Mto1-SZZ in mto2[13A] cells relative to wild-type cells: ~1.5 fold | fold change of γ-tubulin copurifying with Mto1-SZZ in mto2[17A] cells relative to wild-type cells: ~3 fold
